Among the data in article PMC2800235 are stoichiometry N values, retold here.

This assay concerns the target MBP-transposase fusion protein (reconstituted ancestral Hsmar1 transposase) (human (reconstructed ancestral sequence of the human Hsmar1 transposon)). The assay is described as follows: SEC. A general note: In gel filtration, larger molecules generally elute earlier.

For orientation: stoichiometry N means the number of molecules, sites or subunits per partner or assembly. In turn, “MBP-transposase fusion protein (reconstituted ancestral Hsmar1 transposase) (enzyme)” displayed a stoichiometry N of 2.
